The values that follow come from patent US20030175703.

pKd: −log10 of the molar value. Read-outs that look alike come from different tables or passages of the source.

In series [1] the target is coagulation factor IXa (FIXa) (UniProt P00740+P00740). The note with it: FIG. 20 legend gives >>5 uM.
The test system of series [2] is E2F.
The test system of series [3] is E2F. This is another data set of the same source.
In series [4] the target is coagulation factor Xa (FXa) (UniProt P00742+P00742).
Sequence of coagulation factor Xa (FXa) (P00742 41-179, chain 1 of 2): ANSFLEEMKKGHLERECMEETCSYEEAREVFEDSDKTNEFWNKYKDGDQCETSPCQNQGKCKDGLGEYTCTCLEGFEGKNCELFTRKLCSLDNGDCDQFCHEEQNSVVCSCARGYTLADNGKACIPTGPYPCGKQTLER
Sequence of coagulation factor Xa (FXa) (P00742 235-488, chain 2 of 2): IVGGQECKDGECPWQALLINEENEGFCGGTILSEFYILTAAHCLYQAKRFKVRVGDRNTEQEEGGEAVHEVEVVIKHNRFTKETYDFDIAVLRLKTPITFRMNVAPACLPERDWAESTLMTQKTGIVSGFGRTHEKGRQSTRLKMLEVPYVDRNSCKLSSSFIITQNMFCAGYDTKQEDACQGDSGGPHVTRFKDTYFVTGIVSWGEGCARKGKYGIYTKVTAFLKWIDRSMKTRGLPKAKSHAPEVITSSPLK

Sequence of coagulation factor IXa (FIXa) (P00740 47-191, chain 1 of 2): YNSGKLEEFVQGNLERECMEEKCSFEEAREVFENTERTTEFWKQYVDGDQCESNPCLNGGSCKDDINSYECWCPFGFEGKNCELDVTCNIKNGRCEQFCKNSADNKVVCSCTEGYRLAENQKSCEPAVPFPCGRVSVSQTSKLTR
Sequence of coagulation factor IXa (FIXa) (P00740 227-461, chain 2 of 2): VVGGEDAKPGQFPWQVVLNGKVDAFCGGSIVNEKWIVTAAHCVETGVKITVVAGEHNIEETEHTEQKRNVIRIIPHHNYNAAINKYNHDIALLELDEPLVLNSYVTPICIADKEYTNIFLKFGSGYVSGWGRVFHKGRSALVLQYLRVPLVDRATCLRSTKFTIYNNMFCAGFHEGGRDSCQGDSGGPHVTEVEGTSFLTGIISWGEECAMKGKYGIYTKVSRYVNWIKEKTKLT

Consider 9.3tM, for which the pKd (as a rule, the negative decadic logarithm of the Kd, by convention in mol/L) in series [1] was < 5.00.
The substance “AAUGGAAUCACUGAAGGCCCUCCGUAGCACCUAACACAGU [E2F aptamer 221]” showed a negative logarithm of the Kd (pKd) in series [2] (random region only) of 8.82.
Same read-out and setting: with “ACCUCGACCCUUCACCUGACUCUCCCAGAAGUUCUGUUUC [E2F aptamer 219]” the figure was 8.70.
In series [2] (random region only, table and listing differ near 5' end), “AUCCCCGCCGUAAGCCGUCCUGAUGGACACCACACGCCGC [E2F aptamer 226]” showed a pKd of 8.70.
In the case of “CAAGCGCUGAAACCAAUGCACCCCACCCCACACUGGUGUAC [E2F aptamer 204]”, the pKd in series [2] (random region only) was 8.90.
On the same count and under the same terms, the same measure for “CAAGCGUAUACCCUACCCACACUGAGCUACAUUGCGCUGA [E2F aptamer 213]”: 8.10.
For “CACUGAACGAAUGGCAACCGCCAAACCCUACCCACACUGG [E2F aptamer 212]”, the pKd in series [2] (listed as assignment inferred) was 9.70.
For the substance “CAGAUUACCCUACCCACACUGCGUGCGGACAACCAUUGGC [E2F aptamer 201]”, the pKd in series [2] (random region only) was 9.40.
Take “CCACCCGAAGCAAAUCAAGCCCGACGGCGCUCGGACCAAC [E2F aptamer 217]”: the negative-log Kd (pKd) in series [2] (random region only) is 7.82.
The same measure, in the same setting: the same measure for “CGAACGAACUGUGGACCCUACCCACACUGGGCCAAGCGAU [E2F aptamer 207]”: 9.40.
On the same count and under the same terms, with “CGUCACUCCGUCCCAGCCGACGAAGUCCGUAAUUCCUCCA [E2F aptamer 216]” the figure was 7.35.
The same measure, in the same setting: the same measure for “GCACUAAACUUCGAUUACCCCCCACCCACACUGGCUGCAC [E2F aptamer 200]”: 8.40; for “GCAUCCUGCCAGCGGCGACGGACCUUCGCCCACAGGCCUC [E2F aptamer 222]”: 8.70; for “GCCGAGAGUGAGUGACCACAACCCCGCCCACACUGGAAUA [E2F aptamer 214]”: 8.82.
“GCUGCCGCGCCUGGACCCCACCCACAUAUGGGCCACACAC [E2F aptamer 189]”: in series [2] (random region only, listing prints T for U), the pKd was 8.82.
“GGGAGAGAGGAAGAGGGAGGGAAAGCACACGAAGCCCCAGCAAAACCCCACAGGCAAACCCAGAGGCGAAGACGGACCCCCC [E2F 10-3 / 10-7 / 10-11 / 10-12]” showed a pKd in series [3] (printed sequence appears to lack U residues (compare SEQ 223)) of 9.00.
With “GGGAGAGAGGAAGAGGGAGGGAAGGAACACGAAGGCCCCCGAGCACCAACACAGCAAACCCAGAGGCGAAGACGGACCCCCC [E2F 10-1 / 10-8]”, in series [3] (printed sequence appears to lack U residues (compare SEQ 221)), the pKd is 8.82.
For the substance “GGGAGAGAGGAAGAGGGAGGGACCCCGCCGAAGCCGCCGAGGACACCACACCCGCCAAACCCAGAGGCGAAGACGGACCCCCC [E2F 10-6]”, in series [3] (printed sequence appears to lack U residues (compare SEQ 226)), the pKd was 8.70.
With “GGGAGAGAGGAAGAGGGAGGGAGAAACACAGAAGCCCGCGCGACACCCCACGCAAACCCAGAGGCGAAGACGGACCCCCC [E2F 10-4]”, the pKd in series [3] (printed sequence appears to lack U residues (compare SEQ 224)) was 8.30.
Consider “GGGAGAGAGGAAGAGGGAGGGCAAACCACAGACCCAACGCAGGAGCACCCACCCACACGGGACAGCAAACCCAGAGGCGAAGACGGACCCCCC [E2F 10-5]”, for which the negative-log Kd (pKd) in series [3] (printed sequence appears to lack U residues (compare SEQ 225)) is 8.60.
Substance “GGGAGAGAGGAAGAGGGAGGGGCACCGCCAGCGGCGACGGACCCGCCCACAGGCCCCAAACCCAGAGGCGAAGACGGACCCCCC [E2F 10-2]” had a pKd in series [3] (printed sequence appears to lack U residues (compare SEQ 222)) of 8.52.
For the substance “GGGAGAGAGGAAGAGGGAUGGGAAAAUACGCCANNCGAGAUUAUACUUGGCCCCGCUAAUACCAUAACCCAGAGGUCGAU [D6-6]”, the negative logarithm of the Kd (pKd) in series [4] is 8.51.
For “GGGAGAGAGGAAGAGGGAUGGGAGUCCGACUGGAGAACANGUACUCUAUAAGCACUUNCAUNCANCAUAACCCAGAGGUCGAU [E10-7]”, the pKd in series [4] is 7.16.
As to “GGGAGAGAGGAAGAGGGAUGGGCCAUUGCUNCCCUGAACANGGGCNCCACNCCGCCUNCACAGUCAUAACCCAGAGGUCGAU [E10-1]”, the pKd in series [4] is 7.29.
Same read-out and setting: with “GGGAGAGAGGAAGAGGGAUGGGNGAUUAGCCCNAGCGAGAUANUACUUGGCCCCGCUACNUCCAUAACCCAGAGGUCGAU [D7-8]” the figure was 7.84.
On to “UAUGAAAUCACAGAAGCCCGCGUUCGACACCUCCACUGUU [E2F aptamer 224]”, for which, in series [2] (random region only), the pKd was 8.52.
As to “UUAUAUAGCACACUGAAGCCCUCAGCAAAACCUCCACAGG [E2F aptamer 223]”, the negative logarithm of the Kd (pKd) in series [2] (random region only) is 8.82.
The same measure, in the same setting: with “UUUCCUAUGGCGAUAACUUCAGCCACGCCGGCGCCCCGUG [E2F aptamer 215]” the figure was 7.52.
